Experimental data from paper PMC4234702 (Cellular and molecular life sciences : CMLS, 2014).

Target: the molecule itself
Assay: crystal structure

B1: cell-free expressed Δ7 DgkA (thermostabilized mutant of diacylglycerol kinase) (enzyme, Escherichia coli)
chain: ANNTTGFTRIIKAAGYSWKGLRAAWINEAAFRQEGVAVLLCVVIAAWLDVDAVTRVLLISSVMLVMIVELLNSAIEAVVDRIGSEYHELSGRAKDLGSAAVLIAIIDAVITWAILLWSHFG
stoichiometry N: 3
